What all share (assay): cell-based or functional assay
Assay [1] addresses ONNV (O'nyong'nyong virus, MP30) envelope glycoproteins (O'nyong'nyong virus strain MP30).
In assay [2] the target is CHIKV-37997 (virus) (Chikungunya virus strain 37997) (UniProt Q5XXP3).
Assay [3] deals with CHIKV-LR 2006 (virus) (Chikungunya virus strain LR 2006).

Chain of CHIKV-37997 (virus) (Chikungunya virus strain 37997) (Q5XXP3 326-748 limits assumed, chain 1 of 2): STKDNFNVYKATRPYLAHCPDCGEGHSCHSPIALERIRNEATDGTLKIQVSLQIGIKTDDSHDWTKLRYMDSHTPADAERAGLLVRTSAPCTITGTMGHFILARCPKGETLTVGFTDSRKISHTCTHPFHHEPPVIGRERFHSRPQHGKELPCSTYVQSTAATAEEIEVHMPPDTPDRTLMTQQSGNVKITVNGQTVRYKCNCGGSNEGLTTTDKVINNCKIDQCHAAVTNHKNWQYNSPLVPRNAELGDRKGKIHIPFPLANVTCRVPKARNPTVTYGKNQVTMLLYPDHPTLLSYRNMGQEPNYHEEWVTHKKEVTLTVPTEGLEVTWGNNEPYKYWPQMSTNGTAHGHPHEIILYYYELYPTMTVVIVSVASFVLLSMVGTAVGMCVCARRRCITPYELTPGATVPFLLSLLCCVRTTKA
Chain of CHIKV-37997 (virus) (Chikungunya virus strain 37997) (Q5XXP3 810-1248 limits assumed, chain 2 of 2): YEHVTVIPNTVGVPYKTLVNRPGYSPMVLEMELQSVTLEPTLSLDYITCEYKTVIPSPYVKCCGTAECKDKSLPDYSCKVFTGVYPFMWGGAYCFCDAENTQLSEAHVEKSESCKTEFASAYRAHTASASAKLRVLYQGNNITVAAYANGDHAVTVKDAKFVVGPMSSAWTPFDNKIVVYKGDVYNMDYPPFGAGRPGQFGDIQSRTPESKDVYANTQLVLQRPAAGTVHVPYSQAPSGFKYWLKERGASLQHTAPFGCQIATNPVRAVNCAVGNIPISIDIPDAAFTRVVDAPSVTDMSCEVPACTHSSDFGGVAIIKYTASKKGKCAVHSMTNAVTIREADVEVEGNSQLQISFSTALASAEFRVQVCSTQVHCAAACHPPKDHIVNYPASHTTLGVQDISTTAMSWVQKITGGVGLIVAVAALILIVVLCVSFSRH

B1: 506.C01 (antibody, V domains shown)
VH: QVQLQESGPGLVKPSQTLSLTCTVSGGSISSDDYYWTWIRLPPGKGLEWIGYIFYTGGTYYNPSLKSRVTISLDRSKNQFSLKLSSVTAADTAVYFCARAPETYCSTTNCYKGYFDSWGQGTLVTVSS
VL: DIQMTQSPSSVSASVGDRVTITCRASQGISSWLGWYQQKPGKAPKLLIYAASSLQSGVPSRFSGSGSGTDFTLTISSLQPEDFATYYCQQANSFPRTFGQGTKVEIK
For B1, the FRNT neutralisation of ONNV, EC50 in assay [1] is < 0.05 µg/mL.

B2: 520.D02 (antibody, V domains shown)
VH: QVQLVQSGSELQKPGASVKVSCKASGYTFTENAIIWVRQAPGQGLEWMGRIIRYPGRPTIAQGFTGRFGFSLDTSINTAYLEISNLKAEDTAFFYCAREYCDSSSCSSFDYWGQGTLVTVSS
VL: QSVLTQPPSASGSPGQSVTISCTGTNNDVGIYSYVSWYQQHPGKAPKLMIYEVSKRPSGVPDRFSGSKSGNTASLTVSGLQADDEADYYCSSYAGSNSYVFGSGTKVTVL
B2 came in with an FRNT neutralisation, 37997 EC50 in assay [2] of 0.002 µg/mL. Further, the FRNT neutralisation, LR 2006 EC50 in assay [3] was 0.005 µg/mL.

B3: 516.H09 (antibody, V domains shown)
VH: QLQLQESGPGLVKPSETLSLTCTVSGGSISSSSYYWGWIRQPPGKGLEWIGSIYYSGSTYYNPSLKSRVTISVDTSKNQFSLKLSSVTAADTAVYYCARHSYCSGGSCYLAPLGDWGQGTLVTVSS
VL: SYVLTQPPSVSVAPGKTARITCGGNNIGSKSVHWYQQKPGQAPVLVIYYDSDRPSGIPERFSGSNSGNTATLTISRVEAGDEADYYCQVWDSSSDFYVFGTGTKVTVL
In turn, B3 yielded an FRNT neutralisation, 37997 EC50 in assay [2] of 0.526 µg/mL. For the same molecule, the FRNT neutralisation, LR 2006 EC50 in assay [3] came to 0.182 µg/mL.

B4: 516.D09 (antibody, V domains shown)
VH: QVQLVQSGAEVKKPGSSVKVSCKAFGGTFSSSAITWVRQAPGQGLEWMGRIIPIFGTANYAQKFQGRVTITADKSTTTAYMELSSLRSEDTAVYYCALKADSYCSGSSCYPSFDYWGQGTLVTVSS
VL: SYVLTQPPSVSVAPGKTARITCGGNNIGSKSVHWYQQRPGQAPVLVVYDDSDRPSGIPERFSGSNSGNTATLTISRVEAGDEADYYCQVWDSSSDQEVFGGGTKLTVL
In turn, B4 had an FRNT neutralisation, 37997 EC50 in assay [2] of 0.35 µg/mL. In assay [3], this molecule displayed an FRNT neutralisation, LR 2006 EC50 of 0.248 µg/mL.

B5: 516.F07 (antibody, V domains shown)
VH: EVQLVQSGAEVKKPGESLKISCKGSGYRFTSYWIAWVRQMPGKGLECMGIIYPGDSDTRYSPSFQGQVTISVDKSISTAYLQWSSLKASDTAMFYCARHNNNWSLQGYFDYWGQGTLVTVSS
VL: PSALTQPASVSGSPGQSITISCTGTSSDVGGYNYVSWYQQHPGKAPKLMIYDVSNRSSGVSNRFSGSKSGNTASLTISGLQAEDEADYYCSSYTGSSTSNYVFGTGTKVTVL
B5 displayed an FRNT neutralisation, 37997 EC50 in assay [2] of 0.004 µg/mL. Further, the FRNT neutralisation, LR 2006 EC50 in assay [3] was determined as 0.031 µg/mL.

B6: 516.H07 (antibody, V domains shown)
VH: EVQLVESGGGLVQPGGSLRLSCAASGFTFSSYEMNWVRQAPGKGLEWVSYMSYTGSTIYYADSVKGRFTISRDNGKNSLYLQMNSLRVEDTAVYYCARGGVVVAPTYFDYWGQGTLVTVSS
VL: QSVLTQPPSVSGAPGQRVTISCTGSSSNIGAGYDVHWYQQLPGTAPKLLIYHNNNRPSGVPDRFSASKSGTSASLAITGLQAEDEADYYCQSYDSSLSGWVFGGGTKLTVL
For the molecule B6, in assay [1], the FRNT neutralisation of ONNV, EC50 is < 0.05 µg/mL. The molecule further came in with an FRNT neutralisation, 37997 EC50 in assay [2] of 0.91 µg/mL. The molecule further gave an FRNT neutralisation, LR 2006 EC50 in assay [3] of 0.061 µg/mL.

Values taken from patent publication US20260062466A1.
